Laboratory results taken from patent US10653749B2, “Targeting GIV-GEF-GI signaling for treating diverse diseases” (The Regents of the University of California, priority 2015, dated 2020).
Residue numbers refer to the chain shown, from its start. In names and notes the source's numbering stands.

B1: TAT-GIV-CT-WT: Recombinant cell-permeable fusion of TAT-PTD, His and HA tags, linker and human GIV C-terminus (aa 1660-1870), wild type; SEQ ID NO: 2 (protein)
chain: MRGSHHHHHHGMASMTGGQQMGRDLYDDDDKDRWGSKLGYGRKKRRQRRRGGSTMSGYPYDVPDYAGSMGGSGHSGETLESRHHKIKTGSPGSEVVTLQQFLEESNKLTSVQIKSSSQENLLDEVMKSLSVSSDFLGKDKPVSCGLARSVSGKTPGDFYDRRTTKPEFLRPGPRKTEDTYFISSAGKPTPGTQGKIKLVKESSLSRQSKDSNPYATLPRASSVISTAEGTTRRTSIHDFLTKDSRLPISVDSPPAAADSNTTAASNVDKVQESRNSKSRSREQQSS
B2: TAT-GIV-CT-FA: GEF-deficient F1685A mutant of the TAT-GIV-CT peptide, dominant-negative; SEQ ID NO: 3 (protein)
chain: B1 chain with F101A

Assays:
[1] = system: HeLa cells; assay: Actin cytoskeleton remodeling in HeLa cells (phalloidin staining, confocal); format: cell-based; conditions: ~400 nM TAT peptide
Experimental: HeLa cell lines were fixed at room temperature with 3% paraformaldehyde for 20-25 min, permeabilized (0.2% Triton X-100) for 45 min and incubated for 1 h each with primary and then secondary antibodies as described (7). Dilutions of antibodies and reagents were as follows: His (1:500); Phalloidin (1:1,000); DAPI (1: 2,000); secondary goat anti-rabbit (594) and goat anti-mouse (488) Alexa-conjugated antibodies (1:500). Coverslips were mounted with ProLong Gold (Life Technologies). Cells were imaged on a Leica SPE confocal microscope using a 63× oil objective using 488, 561, and 405 laser lines for excitation. Images were scanned using a line-average of 3. All images were processed using ImageJ software and assembled into figure panels using Photoshop and Illustrator (Adobe).
(§1) For TAT-protein transduction, cells were incubated with 400-800 nM of the TAT-proteins for 30 min at 37° C. prior to three washes with PBS and addition of fresh growth media. For analysis of EGF signaling, subconfluent monolayers of HeLa cells were treated with TAT proteins for 30 min, washed with PBS, and subsequently stimulated with EGF (50 nM) at 4 h after TAT transduction. For scratch-wound assays, HeLa monolayers were treated with TAT proteins before and at 12 h after wounding. For cancer cell invasion assays, highly invasive MDA MB 231 breast cancer cells were plated in 6-well dishes, treated with TAT-peptides for 30 min and subsequently lifted and placed in transwell chamber in the presence of serum-free media. For L×2 myofibroblast activation assays, cells were first treated with TAT-proteins for 30 min, starved in serum-free media, and subsequently treated with 1.5 ng/ml TGF-β for 24 h. TAT-protein transduction was repeated every 8 h during the course of TGFβ stimulation (total 3 treatments). For assays involving insulin stimulation of TAT-treated L6 myotubes, such stimulation was carried out 90 min after transduction. In each case, whole cell lysates prepared from cells in duplicate wells were analyzed for signaling pathways and TAT-protein uptake by immunoblotting.

[2] = system: L×2 human hepatic stellate cells; assay: L×2 myofibroblast (hepatic stellate cell) activation by TGFβ, qPCR and immunoblot; format: cell-based
Experimental: For measurement of collagen and αSMA mRNA levels in L×2 HSCs we followed the protocols exactly as before (59). Briefly, total RNA was isolated using an RNeasy kit (QIAGEN) as per the manufacturer's protocol. First-strand cDNA was synthesized using SuperScript II reverse transcriptase (Invitrogen), followed by ribonuclease H treatment (Invitrogen) before performing quantitative realtime PCR. Reactions omitting reverse transcriptase were performed in each experiment as negative controls. Reactions were then run on a real-time PCR system (ABI StepOnePlus; Applied Biosystems). Gene expression was detected with SYBR green (Invitrogen), and relative gene expression was determined by normalizing to GAPDH using the ΔΔT method. The sequences of primers used in this work are identical to what were used previously (59).
as §1, with “For assays involving insulin stimulation of TAT-treated L6 myotubes, such stimulation was carried out 90 min after transduction.” left out

Molecule | actin remodeling / actin stress fibers [1] | actin remodeling / actin stress fibers ([1]; listed as WT) | reduction of HSC activation (expression of α-SMA) ([2]; TGFβ 24 h, TAT every 8 h, qPCR) | suppression of collagen production ([2]; TGFβ 24 h, TAT every 8 h, vs control and TAT-GIV-CT-WT, qPCR) | TGFβ-SMAD cascade (phosphorylation of SMAD2/3) ([2]; immunoblot)
B1 | triggered actin remodeling | not | – | – | –
B2 | suppressed the formation of actin stress fibers | – | ~30% | ~70% | suppression
